T1: THP-1 lysate derived human trimeric ARG2 (human, UniProt P78540 23-354, limits assumed)
T1 sequence (looked up): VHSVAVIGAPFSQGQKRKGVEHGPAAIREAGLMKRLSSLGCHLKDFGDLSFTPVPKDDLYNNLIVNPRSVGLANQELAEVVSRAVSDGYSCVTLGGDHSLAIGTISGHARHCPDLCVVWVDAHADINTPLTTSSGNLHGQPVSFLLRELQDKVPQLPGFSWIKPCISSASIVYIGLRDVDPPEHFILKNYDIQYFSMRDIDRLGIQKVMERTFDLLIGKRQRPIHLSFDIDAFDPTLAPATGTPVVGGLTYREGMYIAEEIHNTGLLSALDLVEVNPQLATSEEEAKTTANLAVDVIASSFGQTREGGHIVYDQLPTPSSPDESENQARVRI

T2: recombinant human trimeric ARG2 enzyme (construct not given) (human, UniProt P78540 23-354)
T2 sequence (looked up): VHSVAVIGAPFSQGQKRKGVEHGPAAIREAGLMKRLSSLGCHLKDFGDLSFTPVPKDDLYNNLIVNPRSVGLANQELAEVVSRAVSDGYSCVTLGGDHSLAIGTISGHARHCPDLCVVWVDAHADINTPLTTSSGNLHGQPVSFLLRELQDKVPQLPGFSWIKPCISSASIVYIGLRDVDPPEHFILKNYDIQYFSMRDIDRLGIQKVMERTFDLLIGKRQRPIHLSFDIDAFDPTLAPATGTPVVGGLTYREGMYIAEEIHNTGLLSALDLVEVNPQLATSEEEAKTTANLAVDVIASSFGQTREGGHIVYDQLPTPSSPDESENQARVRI

T3: biotinylated recombinant human trimeric ARG2 enzyme (Avi-huARG2-His10) (human, UniProt P78540 23-354, biotinylated)
T3 construct: also called avi-Arg2-His10; bio-ARG2
T3 chain: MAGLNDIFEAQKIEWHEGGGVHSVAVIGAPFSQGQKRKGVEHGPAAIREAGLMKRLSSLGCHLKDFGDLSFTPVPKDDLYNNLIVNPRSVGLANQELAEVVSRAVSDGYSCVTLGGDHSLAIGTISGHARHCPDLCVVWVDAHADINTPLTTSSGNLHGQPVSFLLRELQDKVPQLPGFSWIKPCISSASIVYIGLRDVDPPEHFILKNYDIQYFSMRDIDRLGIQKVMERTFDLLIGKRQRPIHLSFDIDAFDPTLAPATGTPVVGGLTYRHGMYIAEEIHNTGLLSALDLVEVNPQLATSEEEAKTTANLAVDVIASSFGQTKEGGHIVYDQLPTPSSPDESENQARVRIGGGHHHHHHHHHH

B1: C0021092 recombinant human IgG1 (antibody, V domains shown)
VH: EVQLLESGGGLVQPGGSLRLSCAASGFTFSRYAMSWVRQAPGKGLEWVSAHTHSPGSTYYADSVKGRFTISRDNSKNTLYLQMNSLRAEDTAVYYCARLRADLGLYMDLWGRGTLVTVSS
VL: QSVLTQPPSVSAAPGQKVTISCSGSSSNIGNHYVSWYQQLPGTAPKLLIYNSVARPSGIPDRFSGSKSGTSATLGITGLQTGDEADYYCGTWDSSLSALVFGGGTKLTVL
B2: C0021128 scFv (scFv, V domains shown)
VH: EVQLLESGGGLVQPGGSLRLSCAASGFTFQYEVAAWVRQAPGKGLEWVSAISGPIPKGYYADSVKGRFTISRDNSKNTLYLQMNSLRAEDTAVYYCARLRADLGLYMDLWGRGTLVTVSS
VL: QSVLTQPPSVSAAPGQKVTISCSGSSSNIGNHYVSWYQQLPGTAPKLLIYDNAIESSGIPDRFSGSKSGTSATLGITGLQTGDGADYYCGTWDSNLSALVFGGGTKLTVL
notes: scFv
B3: C0021022 scFv (scFv, V domains shown)
VH: EVQLLESGGGLVQPGGSLRLSCAASGFTFSSYAMSWVRQAPGKGPEWVSAISGFSPYYADSVKGRFTISRDNSKNTLYLQMNSLRAEDTAVYYCARLRADLGLYMDLWGRGTLVTVSS
VL: QSVLTQPPSVSAAPGQKVTISCSGSSSNIGNHYVSWYQQLPGTAPKLLIYDNSERPSGIPDRFSGSKSGTSATLGITGLQTGDEADYYCGTWDSSLSALVFGGGTKLTVL
notes: scFv
B4: C0021133 scFv (scFv, V domains shown)
VH: EVQLLESGGGLVQPGGSLRLSCAASGFTFRYDHHVWVRQAPGKGLEWVSAISGSGGSTYYADSVKGRFTISRDNSKNTLYLQMNSLRAEDTAVYYCARLRADLGLYMDLWGRGTLVTVSS
VL: QSVLTQPPSVSAAPGQKVTVSCSGSSSNIGNHYVSWYQQLPGTAPKLLIYDTTVLSSGIPDRFSGSKSGTSATLGITGLQTGDEADYYCGTWDELTSNLVFGGGTKLTVL
notes: scFv
B5: C0021141 scFv (scFv, V domains shown)
VH: EVQLLESGGGLVQPGGSLRLSCAASGFTFYPDPQGWVRQAPGKGLEWVSAYGYGIGSTYYADSVKGRFTISRDNSKNTLYLQMNSLRAEDTAVYYCARLRADLGLYMDLWGRGTLVTVSS
VL: QSVLTQPPSVSAAPGQEVTISCSGSSSNIDNHYVSWYQQLPGTAPKLLIYDNSERPSGIPDRFSGSKSGTSATLGITGLQTGDEADYYCGTWDSSLSALVFGGGTKLTVL
notes: scFv
B6: C0021098 scFv (scFv, V domains shown)
VH: EVQLLESGGGLVQPGGSLRLSCAASGFTFSSYAMSWVRQAPGKGLEWVSSSTYGAGSTYYADSVKGRFTISRDNSKNTLYLQMNSLRAEDTAVYYCARLRADLGLYMDLWGRGTLVTVSS
VL: QSVLTQPPSVSAAPGQKVTISCSGSSSNIGNHYVSWYQQLPGTAPKLLIYNSDAPMSGIPDRFSGSKSGTSATLGITGLQTGDEADYYCGTWDSSLSALVFGGGTKLTVL
notes: scFv
B7: C0021124 scFv (scFv, V domains shown)
VH: EVQLLESGGGLVQPGGSLRLSCAASGFTFSSYAMSWVRQAPGKGLEWVSAISYHPGSTYYADSVKGRFTISRDNSKNTLYLQINSLRAEDTAVYYCARLRADLGLYMDLWGRGTLVTVSS
VL: QSVLTQLPSVSAAPGQKVTISCSGSSSNIGNHYVSWYQQLPGTAPKLLIYDNSERPSGIPDRFSGSKSGTSATLGITGLQTGDEADYYCGTWDSDRVNLEFGGGTKLTVL
notes: scFv
B8: C0021129 scFv (scFv, V domains shown)
VH: EVQLLESGGGLVRPGGSLRLSCAASGFTFSSYAMSWVRQAPGKGLEWVSAISGFSPFYADSVKGRFTISRDNSKNTLYLQMNSLRAEDTAVYYCARLRADLGLYMDLWGRGTLVTVSS
VL: QSVLTQPPSVSAAPGQKVTISCSGSSSNIGNHYVSWYQQLPGTAPKLLIYDNSERPSGIPDRFSGSKSGTSATLDITGLQTGDEADYYCGTWDETAAELVFGGGTKLTVL
notes: scFv
B9: C0021139 recombinant human IgG1 (antibody, V domains shown)
VH: EVQLLESGGGLVQPGGSLRLSCAASGFTFQYDYQVWVRQAPGKGLEWVSAISGSGGSTYYADSVKGRFTISRDNSKNTLYLQMNSLRAEDTAVYYCARLRADLGLYMDLWGRGTLVTVSS
VL: QSVLTQPPSVSAAPGQKVTISCSGSSSNIGNHYVSWYQQLPGTAPKLLIYDNSERTSGIPDRFSGSKSGTSATLGITGLQTGDEADYYCGTWDELTSNLVFGGGTKLTVL
B10: C0021096 scFv (scFv, V domains shown)
VH: EVQLLESGGGLVQPGGSLRLSCAASGFTFSSYAMSWVRQAPGKGLEWVSAISGYSGYYADSVKGRFTISRDNSKNTLYLQMNSLRAEDTAVYYCARLRADLGLYMDLWGRGTLVTVSS
VL: QSVLTQPPSVSAAPGQKVTISCSGSSSNIGNHYVSWYQQLPGTAPKLLIYNTERRMSGIPDRFSGSKSGTSATLGITGLQTGDEADYYCGTWDSSLSALVFGGGTKLTVL
notes: scFv
B11: C0021135 scFv (scFv, V domains shown)
VH: EVQLLESGGGLVQPGGSLRLSCAASGFAFRYEYIQWVRQAPGKGLEWVSAISGSGGSTYYADSVKGRFTISRDNSKNTLYLQMNSLRAEDTAVYYCARLRADLGLYMDLWGRGTLVTVSS
VL: QSVLTQPPSVSAAPGQKVTISCSGSSSNIGNHYVSWYQQLPGTAHKLLIYDNSERPSGIPDRFSGSKSGTSATLGITGLQTGDEADYYCGTWDSSLSALVFGGGTKLTVL
notes: scFv
B12: C0021065 scFv (scFv, V domains shown)
VH: EVQLLESGGGLVQPGGSLRLSCAASGFTFSSYAMSWVRQAPGKGPEWVSAISGFSPYYADSVKGRFTISRDNSRNTLYLQMNSLRAEDTAVYYCARLRADLGLYMDLWGRGTLVTVSS
VL: QSVLTQPPSVSAAPGQKVTISCSGSSSNIGNHYVSWYQQLPGTAPKLLIYDTDHMASGIPDRFSGSKSGTSATLGITGLQTGDEADYYCGTWDSSLSALVFGGGTKLTVL
notes: scFv
B13: C0021131 scFv (scFv, V domains shown)
VH: EVQLLESGGGLVQPGGSLRLSCAASGFTFPYDYMGWVRQAPGKGLEWVSAISGSGGSTYYADSVKGRFTISRDNSKNTLYLQMNSLRAEDTAVYYCARLRADLGLYMDLWGRGTLVTVSS
VL: QSVLTQPPSVSAAPGQKVTISCSGSSSNIGNHYVSWYQQLPGTAPKLLIYDNSERPSGIPDRFSGSKSGTSATLGITGLQTGDEADYYCGTWDELTSNLVFGGGTKLTVL
notes: scFv
B14: C0021101 scFv (scFv, V domains shown)
VH: EVQLLESGGGLVQPGGSLRLSCAASGFTFSSYAMSWVRQAPGKGPEWVSAISGFSPYYADSVKGRFTISRDNSKNTLYLQMNSLRAEDTAVYYCARLRADLGLYMDLWGRGTLVTVSS
VL: QSVLTQPPSVSAAPGQKVTISCSGSSSNIGNHYVSWYQQLPGTAPKLLIYNNRSPTSGIPDRFSGSKSGTSATLGITGLQTGDEADYYCGTWDSSLSALVFGGGTKLTVL
notes: scFv
B15: C0021118 scFv (scFv, V domains shown)
VH: EVQLLESGGGLVQPGGSLRLSCAASGFTFSSYAMSWVRQAPGKGLEWVSASLTNPGSTYYADSVKGRFTISRDNSKNTLYLQMNSLRAEDTAVYYCARLRADLGLYMDLWGRGTLVTVSS
VL: QSVLTQPPSVSAAPGQKVTISCSGSSSNIGNHYVSWYQQLPGTAPKLLIYDNSERPSGIPDRFSGSKSGTSATLGITGLQTGDEADYYCATYDTNLSALVFGGGTKLTVL
notes: scFv
B16: C0021139 scFv (scFv, V domains shown)
VH: EVQLLESGGGLVQPGGSLRLSCAASGFTFQYDYQVWVRQAPGKGLEWVSAISGSGGSTYYADSVKGRFTISRDNSKNTLYLQMNSLRAEDTAVYYCARLRADLGLYMDLWGRGTLVTVSS
VL: QSVLTQPPSVSAAPGQKVTISCSGSSSNIGNHYVSWYQQLPGTAPKLLIYDNSERTSGIPDRFSGSKSGTSATLGITGLQTGDEADYYCGTWDELTSNLVFGGGTKLTVL
notes: scFv

Legend:
[1] = target: T1, THP-1 lysate derived human trimeric ARG2; test: cell-based or functional assay
[2] = target: T2, recombinant human trimeric ARG2 enzyme …; test: cell-based or functional assay
[3] = target: T2, recombinant human trimeric ARG2 enzyme …; test: cell-based or functional assay; remark: listed apart in the source
[4] = target: T3, biotinylated recombinant human trimeric …; test: HTRF epitope competition, scFv titrated, competitor C0020187 IgG, on biotinylated human trimeric ARG2

Row | Binder | IC50 (M) THP-1 ARG2 (healthy human plasma) [1] | IC50 (M) THP-1 ARG2 (no plasma) [1] | EC50, In Presence of rhARG2 (T cell proliferation) [2] | Maximum % Proliferation, In Presence of rhARG2 [2] | Trimeric human ARG2 EIA IC50 [3] | IC50 [4]
1 | B1 | 2.82e-09 M | 6.56e-09 M | 116 nM | 77% |  | 
2 | B2 |  |  |  |  | 169 nM | 44.5 nM
3 | B3 |  |  |  |  | 106 nM | 65.9 nM
4 | B4 |  |  |  |  | 281 nM | 43.3 nM
5 | B5 |  |  |  |  | 109 nM | 51.1 nM
6 | B6 |  |  |  |  | 134 nM | 48.3 nM
7 | B7 |  |  |  |  | 375 nM | 50.5 nM
8 | B8 |  |  |  |  | 313 nM | 45 nM
9 | B9 | 2.02e-09 M | 5.75e-09 M | 111 nM | 67% |  | 
10 | B10 |  |  |  |  | 57.8 nM | 35.2 nM
11 | B11 |  |  |  |  | 220 nM | 52 nM
12 | B12 |  |  |  |  | 143 nM | 74.7 nM
13 | B13 |  |  |  |  | 251 nM | 45.7 nM
14 | B14 |  |  |  |  | 64.8 nM | 40.8 nM
15 | B15 |  |  |  |  | 84.1 nM | 41.7 nM
16 | B16 |  |  |  |  | 188 nM | 40.1 nM

— patent US20220403048A1 (CANCER RESEARCH TECHNOLOGY, published 2022)
